Patent US9782486B2, “Albumin conjugated temperature and pH-sensitive multi-block copolymer, a method of preparation thereof and drug delivery system using the same” (Research & Business Foundation Sungkyunkwan University, priority 2014, dated 2017)
Where two headings read alike, the source gives them in different places.

Columns and labels:
[1] = In vivo lysozyme release, lysozyme in blood serum (ELISA); design: species or system male SD rats
Description: In order to examine the in vivo release of lysozyme, a sample solution loaded with 250 μL of lysozyme was injected to male SD rats (three rats per group). At predetermined times, blood samples were collected from the caudal vein, centrifuged to obtain blood sera, and stored them at −21° C. until the next analysis. The concentration of the lysozyme in the blood sera was measured using a commercial lysozyme (LZM) ELISA kit (Cusabio, China).
In order to examine the in vivo release of lysozyme, a sample solution loaded with 250 μL of lysozyme was injected to male SD rats (three rats per group). At predetermined tunes, blood samples were collected from the caudal vein, centrifuged to obtain blood sera, and stored them at −21° C. until the next analysis. The concentration of the lysozyme in the blood sera was measured using a commercial lysozyme (LZM) ELISA kit (Cusabio, China).

[2] = cited from earlier work
[3] = Zeta potential measurement; type: physicochemical; conditions: solution alone, pH 7.4, 1 mg/mL, room temperature
Description: The zeta potential values of the PAU and PAUBSA conjugates were measured at room temperature by Metasizer Nano ZS instrument (Malvern Instrument). The solution concentrations for all samples were 1 mg/mL and their pH was adjusted to 7.4. The solutions were stabilized at room temperature for 20 minutes before measurement.

[4] = single subcutaneous injection of lysozyme-loaded sample

lysozyme: chicken egg white lysozyme, model protein loaded into the hydrogels; also injected as plain solution
duration of lysozyme release until serum lysozyme reached the normal level [1, 4]: within nine days | initial burst release of lysozyme in vivo [1, 4]: initial burst was obviously observed | time to reach peak lysozyme level ([1]; single subcutaneous injection, 10 mg/mL lysozyme): within two days | peak lysozyme level in blood ([1]; single subcutaneous injection, 10 mg/mL lysozyme in the preparation): about 447 ng/mL | temperature up to which thermal stability is maintained ([2]; in the presence of an anionic modified polymer): up to 72 °C | bioactivity of lysozyme released from PEG-based hydrogels and other polymeric devices ([2]; up to 28 days): about 95% | bioactivity of lysozyme released from PEG-based hydrogels and other polymeric devices ([2]; up to 50 days): 100% | zeta potential [3]: 11.2 mV
